B1: FAM98B (parent)
chain: QLDKNSEVYQEVQAMFDTLGIPKS

Variants of: B1
Assay: protein stability index of a GFP-peptide fusion (GPS, HEK-293T) (PSI 1-6); higher = more stable
Conditions: c terminus: a fixed tail appended
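Also: lentivirally expressed fusions sorted by FACS into six bins by GFP to DsRed ratio, PSI derived from sequencing read proportions per bin multiplied by bin number.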

In order of falling protein stability index:
1. S24D  4.28
2. S24G  3.61
3. S24N  3.56
4. S24E  3.47
5. K23Q  3.41
6. K23V  3.4
7. K23R  3.38
8. S24Q  3.25
9. K23T  3.24
10. K23S  3.24
11. S24F  3
12. S24H  2.99
13. S24W  2.99
14. S24K  2.96
15. S24A  2.88
16. S24P  2.79
17. K23Y  2.71
18. S24M  2.69
19. S24I  2.67
20. S24V  2.61
21. S24R  2.5
22. S24T  2.48
23. S24L  2.46
24. S24C  2.44
25. S24Y  2.36
26. K23W  2.3

From the supplement of paper PMC10567573
